T1: mouse GBA (endogenous, lung tissue) (mouse, UniProt P17439 20-515)
T1 construct: Endogenous protein precipitated or detected with anti-GBA antibody; also called glucocerebrosidase
T1 sequence (looked up): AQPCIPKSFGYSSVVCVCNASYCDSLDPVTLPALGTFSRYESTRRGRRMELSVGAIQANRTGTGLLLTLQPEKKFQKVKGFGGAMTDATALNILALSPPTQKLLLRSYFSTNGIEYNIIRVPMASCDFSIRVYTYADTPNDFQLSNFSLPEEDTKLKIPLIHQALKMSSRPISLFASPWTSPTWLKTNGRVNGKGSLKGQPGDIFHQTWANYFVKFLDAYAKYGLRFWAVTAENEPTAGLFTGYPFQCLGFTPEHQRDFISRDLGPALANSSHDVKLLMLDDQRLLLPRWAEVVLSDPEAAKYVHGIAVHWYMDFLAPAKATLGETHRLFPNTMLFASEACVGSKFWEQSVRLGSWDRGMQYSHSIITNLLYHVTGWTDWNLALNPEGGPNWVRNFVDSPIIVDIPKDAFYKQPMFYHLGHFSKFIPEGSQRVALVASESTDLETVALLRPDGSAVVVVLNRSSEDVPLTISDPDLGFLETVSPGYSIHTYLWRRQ

B1: mouse alpha-galactosidase A (endogenous, lung tissue) (enzyme, UniProt P51569 32-419, looked up)
chain: LDNGLARTPTMGWLHWERFMCNLDCQEEPDACISEQLFMQMAELMVSDGWRDAGYDYLCIDDCWMAPERDSKGRLQADPQRFPSGIKHLANYVHSKGLKLGIYADVGNKTCAGFPGSFGSYDIDAQTFADWGVDLLKFDGCHCDSVVSLENGYKYMALALNRTGRSIVYSCEWPLYLRPFHKPNYTDIQYYCNHWRNFDDVYDSWESIKNILSWTVVYQKEIVEVAGPGSWNDPDMLVIGNFGLSWDQQVTQMALWAIMAAPLLMSNDLRQISSQAKALLQNKDVIAINQDPLGKQGYCFRKENHIEVWERPLSNLAWAVAVRNLQEIGGPCPYTIQISSLGRGLACNPGCIITQLLPEKVHLGFYEWTLTLKTRVNPSGTVLFRLER
notes: Endogenous protein in lung lysate; also called GLA; alpha-GLA
B2: Recombinant LIMP2 (R&D Systems Cat. No. 1966-LM-050) (receptor, UniProt Q14108 27-432, looked up)
chain: RVFQKAVDQSIEKKIVLRNGTEAFDSWEKPPLPVYTQFYFFNVTNPEEILRGETPRVEEVGPYTYRELRNKANIQFGDNGTTISAVSNKAYVFERDQSVGDPKIDLIRTLNIPVLTVIEWSQVHFLREIIEAMLKAYQQKLFVTHTVDELLWGYKDEILSLIHVFRPDISPYFGLFYEKNGTNDGDYVFLTGEDSYLNFTKIVEWNGKTSLDWWITDKCNMINGTDGDSFHPLITKDEVLYVFPSDFCRSVYITFSDYESVQGLPAFRYKVPAEILANTSDNAGFCIPEGNCLGSGVLNVSICKNGAPIIMSFPHFYQADERFVSAIEGMHPNQEDHETFVDINPLTGIILKAAKRFQINIYVKKLDDFVETGDIRTMVFPVMYLNESVHIDKETASRLKSMINTT
modifications: biotin-labeled (EZ-Link Sulfo-NHS-LC-Biotin)
notes: Bought protein; also called Lysosomal integral membrane protein 2
B3: mouse LIMP2 (endogenous, lung tissue) (receptor, UniProt O35114 1-478, looked up)
chain: MGRCCFYTAGTLSLLLLVTSVTLLVARVFQKAVDQTIEKNMVLQNGTKVFNSWEKPPLPVYIQFYFFNVTNPEEILQGEIPLLEEVGPYTYRELRNKANIQFGENGTTISAVTNKAYVFERNQSVGDPNVDLIRTINIPLLTVVDLAQLTLLRELIEAMLKAYQQKLFVIHTVHELLWGYKDEILSLVHIFKPDVSPNFGLFYERNGTNDGEYVFLTGEDNYLNFSKIVEWNGKTSLDWWTTDTCNMINGTDGDSFHPLISKDEVLYLFPSDLCRSVHITFSSFENVEGLPAFRYKVPAEILANTSENAGFCIPEGNCMDSGVLNISICKNGAPIIMSFPHFYQADEKFVSAIKGMHPNKEEHESFVDINPLTGIILRGAKRFQINTYVRKLDDFVETGDIRTMVFPVMYLNESVLIDKETANQLKSVINTTLVVTNIPYIIMALGVFFGLVFTWLACRGQGSMDEGTADERAPLIRT
notes: Endogenous protein in lung lysate; also called Lysosomal integral membrane protein 2
B4: Recombinant GBA (R&D Systems Cat. No. 7410-GH-010) (enzyme, UniProt P04062 40-536, looked up)
chain: ARPCIPKSFGYSSVVCVCNATYCDSFDPPTFPALGTFSRYESTRSGRRMELSMGPIQANHTGTGLLLTLQPEQKFQKVKGFGGAMTDAAALNILALSPPAQNLLLKSYFSEEGIGYNIIRVPMASCDFSIRTYTYADTPDDFQLHNFSLPEEDTKLKIPLIHRALQLAQRPVSLLASPWTSPTWLKTNGAVNGKGSLKGQPGDIYHQTWARYFVKFLDAYAEHKLQFWAVTAENEPSAGLLSGYPFQCLGFTPEHQRDFIARDLGPTLANSTHHNVRLLMLDDQRLLLPHWAKVVLTDPEAAKYVHGIAVHWYLDFLAPAKATLGETHRLFPNTMLFASEACVGSKFWEQSVRLGSWDRGMQYSHSIITNLLYHVVGWTDWNLALNPEGGPNWVRNFVDSPIIVDITKDTFYKQPMFYHLGHFSKFIPEGSQRVGLVASQKNDLDAVALMHPDGSAVVVVLNRSSKDVPLTIKDPAVGFLETISPGYSIHTYLWRRQ
modifications: biotin-labeled (EZ-Link Sulfo-NHS-LC-Biotin) in the solid phase binding assay only
notes: Bought protein; Immobilised on the COOH1 chip in SPR; also called glucocerebrosidase; beta-glucocerebrosidase
B5: Recombinant His-tag PGRN protein (recombinant human progranulin) (ligand)
chain: TRCPDGQFCPVACCLDPGGASYSCCRPLLDKWPTTLSRHLGGPCQVDAHCSAGHSCIFTVSGTSSCCPFPEAVACGDGHHCCPRGFHCSADGRSCFQRSGNNSVGAIQCPDSQFECPDFSTCCVMVDGSWGCCPMPQASCCEDRVHCCPHGAFCDLVHTRCITPTGTHPLAKKLPAQRTNRAVALSSSVMCPDARSRCPDGSTCCELPSGKYGCCPMPNATCCSDHLHCCPQDTVCDLIQSKCLSKENATTDLLTKLPAHTVGDVKCDMEVSCPDGYTCCRLQSGAWGCCPFTQAVCCEDHIHCCPAGFTCDTQKGTCEQGPHQVPWMEKAPAHLSLPDPQALKRDVPCDNVSSCPSSDTCCQLTSGEWGCCPIPEAVCCSDHQHCCPQGYTCVAEGQCQRGSEIVAGLEKMPARRASLSHPRDIGCDQHTSCPVGQTCCPSLGGSWACCQLPHAVCCEDRQHCCPAGYTCNVKARSCEKEVVSAQPATFLARSPHVGVKDVECGEGHFCHDNQTCCRDNRQGWACCPYRQGVCCADRRHCCPAGFRCAARGTKCLRREAPRWDAPLRDPALRQLL
notes: Coated on the plate in the solid phase assay; analyte (200 nM) in SPR; also called rPGRN; His-tagged PGRN; not shown: His tag

Assays:
[1] = molecular target: T2, mouse Sortilin (endogenous, lung tissue) (mouse, UniProt Q6PHU5 74-825); assay: co-immunoprecipitation from lung lysate of WT and PGRN KO mice, IP: Sortilin, IB: GLA
T2 construct: Endogenous protein in lung lysate
T2 sequence (Q6PHU5 74-825 limits assumed): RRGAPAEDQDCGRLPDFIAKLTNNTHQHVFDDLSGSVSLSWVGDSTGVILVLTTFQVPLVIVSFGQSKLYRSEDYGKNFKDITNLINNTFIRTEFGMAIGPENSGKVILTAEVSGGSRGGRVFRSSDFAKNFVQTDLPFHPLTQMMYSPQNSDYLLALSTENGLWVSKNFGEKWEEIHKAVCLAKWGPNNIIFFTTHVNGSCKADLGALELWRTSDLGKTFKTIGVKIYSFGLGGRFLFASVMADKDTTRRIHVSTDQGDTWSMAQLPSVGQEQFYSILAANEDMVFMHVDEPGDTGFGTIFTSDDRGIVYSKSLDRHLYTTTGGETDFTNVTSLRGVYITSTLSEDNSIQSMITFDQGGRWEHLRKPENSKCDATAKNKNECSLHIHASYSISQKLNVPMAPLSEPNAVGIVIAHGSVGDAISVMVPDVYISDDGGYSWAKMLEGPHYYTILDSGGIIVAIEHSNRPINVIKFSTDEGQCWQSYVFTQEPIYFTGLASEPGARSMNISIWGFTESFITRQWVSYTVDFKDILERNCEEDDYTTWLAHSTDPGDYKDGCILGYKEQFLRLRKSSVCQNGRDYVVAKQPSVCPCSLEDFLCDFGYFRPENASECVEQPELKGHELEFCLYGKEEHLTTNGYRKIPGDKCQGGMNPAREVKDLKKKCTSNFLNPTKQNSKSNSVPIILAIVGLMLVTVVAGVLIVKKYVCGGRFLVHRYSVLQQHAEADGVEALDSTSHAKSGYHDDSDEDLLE

[2] = molecular target: B5; assay: solid phase binding assay: PGRN coated at the concentration on the x axis (µg/ml), biotin-labeled LIMP2 added, streptavidin-HRP, OD 450 nm
Protocol: (§1) The plate was washed with 0.1% tween/PBS five times and then blocked with 2% BSA/PBS solution. […] Wash with 0.1% tween/PBS, and coated with streptavidin-HRP (1:2000 dilution) solution for 1 hour. After washing add t h e substrate and stop the reaction with 100 μl 2M H₂SO₄. Read result at UV 450 nm in plate reader.

[3] = molecular target: T1, mouse GBA (endogenous, lung tissue); assay: co-immunoprecipitation from lung lysate of WT and PGRN KO mice, IP: GBA, IB: LIMP2
[4] = molecular target: B5; assay: SPR (SensiQ Pioneer), GBA immobilised, PGRN injected, running buffer pH 6.5
Protocol: (§2) All SPR experiments were done by SensiQ Technologies Inc. (Oklahoma City, Okla.) by using SensiQ Pioneer at a controlled analysis temperature of 25° C., and samples in the instrument sample racks were maintained at 18° C. The running buffer throughout the immobilization and the assay consisted of 10 mM HEPES, 150 mM NaCl, 0.005% Tween 20.
(§3) Data was analyzed using the QDat Analysis Software (SensiQ Technologies and BioLogic Software). All data were double referenced to a reference channel (channel 2) and buffer blanks. The average signal of the buffer blanks was used to subtract injection artifacts. Referenced SPR data from the analysis channels were model fit to ascertain ka, kd, and KD for the interactions.

[5] = molecular target: B5; assay: SPR (SensiQ Pioneer), GBA immobilised, PGRN injected, running buffer pH 6.0
Protocol: as §2, §3

[6] = molecular target: B5; assay: SPR (SensiQ Pioneer), GBA immobilised, PGRN injected, running buffer pH 5.5
Protocol: as §2, §3

[7] = molecular target: B5; assay: SPR (SensiQ Pioneer), GBA immobilised, PGRN injected, running buffer pH 7.4
Protocol: as §2, §3

[8] = molecular target: T3, Recombinant sortilin (R&D Systems Cat. No. 3154-ST-050) (UniProt Q99523 78-755); assay: SPR, SensiQ Pioneer, COOH1 chip, Sortilin immobilised, PGRN as analyte (data not shown)
T3 construct: Bought protein; Immobilised on channel 1 of the chip in SPR

[9] = molecular target: B4; assay: solid phase binding assay: PGRN coated at the concentration on the x axis (µg/ml), biotin-labeled GBA added, streptavidin-HRP, OD 450 nm
Protocol: as §1

Binder: B1
binding result [1]: binds

Binder: B2
binding result [2]: no binding (tested: 5 µg/ml)

Binder: B3
binding result [3]: binds

Binder: B4
Kd [4]: 20.8 nM
Kd [5]: 16.9 nM
Kd [6]: 55 nM
Kd [7]: 0.71 nM

Binder: B5
Kd [8]: 3.67 nM
EC50 (read off the curve) [9]: ~1 µg/mL

— US20170049855A1 (NEW YORK UNIVERSITY, published 2017)
